Data published in publication PMC4400868.

Assay: AUC

Q: What does the source list for “Leucine-rich amelogenin protein, phosphorylated at S16 (LRAP(+P))”?
A: % monomers (2.5 mM CaCl2, pH 7.4): 94% monomers; monomer % (0.78 mg/mL, 50 mM NaCl, pH 7.4): 93.6%; monomer % (0.78 mg/mL, 50 mM NaCl, pH 8.0): 92.3%; monomer % (0.92 mg/mL, 150 mM NaCl, pH 8.0): 92.6%; monomer % (0.92 mg/mL, 200 mM NaCl, pH 8.0): 97.9%; monomer % (1.0 mg/mL, 50 mM NaCl, pH 5.8): 84.4%; monomer % (1.0 mg/mL, 150 mM NaCl, pH 5.8): 90.9%; monomer % (1.0 mg/mL, 150 mM NaCl, pH 7.4): 93.9%; monomer % (1.0 mg/mL, 200 mM NaCl, pH 5.8): 94.5%; monomer % (1.0 mg/mL, 200 mM NaCl, pH 7.4): 97.7%
